In paper PMC10602967, “Modulatory role of RNA helicases in MBNL-dependent alternative splicing regulation”:

Key:
rDDX5 [1] = target: T1, rDDX5 (UniProt P17844 1-614); assay: EMSA; slightly lower preference than ss(UGCU)4; no defined complex band; Kd only in figure; EMSA: 15 nM RNA, 50 mM NaCl, 50 mM KCl, 50 mM Tris-HCl, 1 mM MgCl2 (pH not stated), 37 C 15 min, 10 ul, 6% native PA gel; Kd by one-site fit with Bmax = 100; conditions: protein: commercial; label: 5'-biotin; 3'-Cyanine 5; single-stranded
T1 sequence (P17844 whole entry): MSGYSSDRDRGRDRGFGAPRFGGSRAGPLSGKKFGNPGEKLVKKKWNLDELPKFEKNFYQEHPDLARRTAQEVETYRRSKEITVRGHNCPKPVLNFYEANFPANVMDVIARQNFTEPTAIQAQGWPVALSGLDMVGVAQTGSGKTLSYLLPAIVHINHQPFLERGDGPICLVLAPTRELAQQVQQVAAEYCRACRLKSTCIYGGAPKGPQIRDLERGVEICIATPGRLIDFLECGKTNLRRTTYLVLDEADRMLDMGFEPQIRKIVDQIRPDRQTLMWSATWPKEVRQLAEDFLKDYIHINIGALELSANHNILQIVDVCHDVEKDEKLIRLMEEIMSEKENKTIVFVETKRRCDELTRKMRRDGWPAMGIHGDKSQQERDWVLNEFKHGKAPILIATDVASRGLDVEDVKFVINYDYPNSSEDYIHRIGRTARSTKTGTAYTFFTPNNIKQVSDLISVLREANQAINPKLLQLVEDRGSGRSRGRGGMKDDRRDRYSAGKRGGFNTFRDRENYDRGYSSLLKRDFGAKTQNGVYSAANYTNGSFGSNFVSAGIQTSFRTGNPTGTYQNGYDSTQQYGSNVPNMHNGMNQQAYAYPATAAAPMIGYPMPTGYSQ

rDDX5 [2] = target: T1, rDDX5; assay: EMSA; slightly preferred over RNA-ctrl; no defined complex band; Kd only in figure; EMSA: 15 nM RNA, 50 mM NaCl, 50 mM KCl, 50 mM Tris-HCl, 1 mM MgCl2 (pH not stated), 37 C 15 min, 10 ul, 6% native PA gel; Kd by one-site fit with Bmax = 100; conditions: protein: commercial; label: 5'-biotin; 3'-Cyanine 5; single-stranded

Binder: UUUUUUUUGUCUGGUCCCUCGUUUUUUUU (ssRNA) [RNA-ctrl]
- binding result (rDDX5 [1]): binds

Binder: UUUUUUUUGCUUGCUUGCUUGCUUUUUUUU (ssRNA) [RNA-ss(UGCU)4]
- binding result (rDDX5 [2]): binds
